Tests used:
[1] = biological target: T1, hPD-L1(ECD)-Fc (human, UniProt Q9NZQ7 19-238); experiment: BLI (Fortebio Red96), Protein A probes, 30℃
T1 construct: extracellular domain; also called 重组人PD-L1; not shown: Fc part not described

[2] = biological target: T2, 人CD47 (Jurkat细胞, 高表达人CD47) (human, UniProt Q08722 19-323); experiment: flow cytometry competition against hSIRPa(ECD)-Fc-Biotin on Jurkat cells
T2 construct: whole, on cells

[3] = biological target: T3, hCD47(ECD)-Fc (human, UniProt Q08722 19-139); experiment: BLI (Fortebio Red96), Protein A probes, 30℃
T3 construct: extracellular domain; not shown: Fc part not described
T3 sequence (Q08722 19-139): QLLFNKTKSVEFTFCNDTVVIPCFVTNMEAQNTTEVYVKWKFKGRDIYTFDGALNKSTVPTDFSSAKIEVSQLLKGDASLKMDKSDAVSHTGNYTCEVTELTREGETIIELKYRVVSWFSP

T2 sequence (Q08722 19-323): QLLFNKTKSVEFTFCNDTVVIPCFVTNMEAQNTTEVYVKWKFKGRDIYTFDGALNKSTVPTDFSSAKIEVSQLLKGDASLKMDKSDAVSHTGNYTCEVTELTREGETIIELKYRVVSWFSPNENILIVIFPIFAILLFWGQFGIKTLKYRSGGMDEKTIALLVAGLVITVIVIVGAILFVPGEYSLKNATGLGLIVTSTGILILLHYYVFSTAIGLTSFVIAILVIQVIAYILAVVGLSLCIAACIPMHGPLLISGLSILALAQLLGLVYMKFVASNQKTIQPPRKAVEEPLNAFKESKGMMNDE
T1 sequence (Q9NZQ7 19-238): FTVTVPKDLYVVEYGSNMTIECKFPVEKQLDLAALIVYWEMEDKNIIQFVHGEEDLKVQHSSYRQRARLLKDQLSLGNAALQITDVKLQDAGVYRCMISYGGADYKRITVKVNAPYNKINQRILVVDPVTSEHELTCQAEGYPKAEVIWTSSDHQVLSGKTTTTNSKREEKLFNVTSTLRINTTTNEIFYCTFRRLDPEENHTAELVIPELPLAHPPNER

Binder	Kd [1] [nM]	IC50 [2] [nM]	Kd [3] [nM]
PD-L1单域抗体Fc融合蛋白(Nb-Fc) (Fc fusion, Control; also called PD-L1 Nb-Fc; 原始PD-L1单域抗体; not shown: Fc part (and any hinge or linker) of the control fusion is not described) QVQLQESGGGLVQPGGSLRLSCTASGYNLSPSCMGWFRQAPGKGLEGVAFTDADGSTRYADSVKARFTISRDNSKNTLYLQMNSLRAEDTAVYYCAADFFSYCSVVFRASARDKYRGQGTLVTVSS	26.5		
CD47单域抗体Fc融合蛋白(Nb-Fc) (Fc fusion, Control; also called CD47 Nb-Fc; 原始CD47单域抗体; not shown: Fc part (and any hinge or linker) of the control fusion is not described) QVQLQESGGGLVQPGGSLRLSCAASGYAYTSDCMGWFRQTPGKGLEGVALIYTPGASTNYADSVKGRFTISQDNSKSTVYLQMNSLRAEDTAMYYCAARRGACSLRLPFFYWGQGTLVTVSS		4.49	6.13

— patent CN112745392A (SHANGHAI NOVAMAB BIOPHARMACEUTICALS CO LTD, dated 2021)
